The record followed here is article PMC12154015, “A Novel Approach for the Activity Assessment of L-Asparaginase Formulations When Dealing with Complex Biological Samples” (International Journal of Molecular Sciences, 2025).

Holding throughout (assay): purified protein
Substrate in series [1]: NC(=O)C[C@H](N)C(=O)O
The settings on record: PBS 0.01 M, pH 7.4, 37 °C, [S]0 = 10 mM.

Substrate in series [2]: Cc1cc(=O)oc2cc(NC(=O)C[C@H](N)C(=O)O)ccc12
It counts as biochemical, Escherichia coli. The settings on record: 37 °C, pH 7.4, table heading says in bovine serum, [S]0 = 1 mM.

Substrate in series [3]: NC(=O)C[C@H](N)C(=O)O
It counts as biochemical, Rhodospirillum rubrum. The settings on record: PBS 0.01 M, pH 7.4, 37 °C, [S]0 = 10 mM.

Substrate in series [4]: Cc1cc(=O)oc2cc(NC(=O)C[C@H](N)C(=O)O)ccc12
The format is biochemical, Rhodospirillum rubrum. Particulars: 37 °C, pH 7.4, table heading says in bovine serum, [S]0 = 1 mM.

B1: EcA; E. coli L-ASNase (Veropharm) (Escherichia coli K-12) (protein)
chain: LPNITILATGGTIAGGGDSATKSNYTVGKVGVENLVNAVPQLKDIANVKGEQVVNIGSQDMNDNVWLTLAKKINTDCDKTDGFVITHGTDTMEETAYFLDLTVKCDKPVVMVGAMRPSTSMSADGPFNLYNAVVTAADKASANRGVLVVMNDTVLDGRDVTKTNTTDVATFKSVNYGPLGYIHNGKIDYQRTPARKHTSDTPFDVSKLNELPKVGIVYNYANASDLPAKALVDAGYDGIVSAGVGNGNLYKSVFDTLATAAKTGTAVVRSSRVPTGATTQDAEVDDAKYGFVASGTLNPQKARVLLQLALTQTKDPQQIQQIFNQY
notes: commercial native enzyme (Veropharm), unconjugated; monomer 37 kDa, 348 residues as printed (precursor length); tetramer
Regarding B1, the Km in the series “purified protein [1]” and in the series “purified protein [2]” was 20 ± 3 µM each time.

B2: RrA; Rhodospirillum rubrum type I L-ASNase (Rhodospirillum rubrum ATCC 11170) (protein)
chain: MAVSPSPLRIFTAGGTIDKDYRLEENGLVVGDPFVAEVLKTARLAGAVSIVALSRKDSLDFTEADREAIGRAVGQAVEDHILLTHGTDTMVETARYLGGLPELAGKTVVLSGAMVPGRVGGSDAAFNIGFACAAALMLAPGVYIAMHGKVFDPAKTRKNRGLGRFEPIDDQE
notes: recombinant, native (unconjugated); 172 residues, monomer 18 kDa; tetramer/dimer
As for B2, the Km in “purified protein [3]” and in the series “purified protein [4]” was 4000 ± 300 µM throughout.

One may read the Km as the substrate concentration at which the rate is half of its maximum.
